T1: Ebola virus (EBOV) glycoprotein (GP), wild-type, construct not stated (Ebola virus (EBOV), UniProt Q05320 33-650)
T1 sequence: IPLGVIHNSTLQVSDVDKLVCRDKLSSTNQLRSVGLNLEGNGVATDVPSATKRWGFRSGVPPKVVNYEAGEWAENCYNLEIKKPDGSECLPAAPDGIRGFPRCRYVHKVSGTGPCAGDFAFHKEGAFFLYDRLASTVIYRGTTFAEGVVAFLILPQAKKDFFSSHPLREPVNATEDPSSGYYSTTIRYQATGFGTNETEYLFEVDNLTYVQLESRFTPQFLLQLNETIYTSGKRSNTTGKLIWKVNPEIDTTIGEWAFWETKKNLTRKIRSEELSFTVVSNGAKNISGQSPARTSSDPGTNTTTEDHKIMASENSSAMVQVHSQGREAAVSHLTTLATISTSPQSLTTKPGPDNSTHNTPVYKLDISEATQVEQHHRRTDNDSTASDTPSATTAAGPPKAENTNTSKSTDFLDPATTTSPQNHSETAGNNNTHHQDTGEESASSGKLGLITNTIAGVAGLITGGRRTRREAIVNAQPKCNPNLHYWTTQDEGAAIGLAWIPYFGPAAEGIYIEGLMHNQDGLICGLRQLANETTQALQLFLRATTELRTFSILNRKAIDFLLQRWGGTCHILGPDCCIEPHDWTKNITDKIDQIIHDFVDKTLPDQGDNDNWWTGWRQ

T2: thermolysin-cleaved GP (GPCL) (Ebola virus (EBOV), UniProt Q05320 33-190; Q05320 502-650)
T2 sequence 1: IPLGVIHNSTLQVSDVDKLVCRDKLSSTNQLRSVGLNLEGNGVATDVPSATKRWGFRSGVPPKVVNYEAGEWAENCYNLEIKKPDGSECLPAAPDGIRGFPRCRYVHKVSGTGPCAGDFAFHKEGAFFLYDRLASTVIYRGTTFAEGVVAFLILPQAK
T2 sequence 2: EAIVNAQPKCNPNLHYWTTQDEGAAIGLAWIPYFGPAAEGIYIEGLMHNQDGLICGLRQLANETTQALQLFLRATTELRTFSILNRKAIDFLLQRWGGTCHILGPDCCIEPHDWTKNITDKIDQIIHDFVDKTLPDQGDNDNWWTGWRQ

B1: m8C4 (antibody, V domains shown)
VH: EVQLQESGPELKKPGETVKISCKASGYTFTTYGMSWVKQAPGKGLKWMGRINTYSGVPTYADEFKGRFAFSLENSASTAYLQINNLKNEDTATYFCARGDGGHWFANWGQGTLVTVSA
VL: DIQMTQSPSSLSASLGGKVTITCKASQDINKNIAWYQHKPGKGPRLLIWYKSALQPGIPSRFSGSGSGRDYSFSISNLEPEDIATYSCLQYDNLPPTFGGGTKLEIKR
B2: CA45 (antibody, V domains shown)
VH: QVQLQEWGEGLVKPSETLSLTCAVYGGSISGYYHWNWIRLPPGKGLEWIGNIDNSASTNYNPSLKTRVTISKDTSKNQISLKVRSLTAADTAVYYCARDPGFTIFGVVITSWSGLDSWGQGAVVTVSS
VL: DIQMTQSPSSLSASVGDTVTITCRASQSISNNLAWYQQRPRRAPQLLIYAASNLASGVPSRFSGSGSGTDFTLTISSLQAEDFAAYYCQQHNTLPLTFGGGTKVEI

Experiments:
[1] = target: T1, Ebola virus (EBOV) glycoprotein (GP), …; assay: cell-based or functional assay
[2] = target: T2, thermolysin-cleaved GP (GPCL); assay: ELISA
[3] = target: T2, thermolysin-cleaved GP (GPCL); assay: biolayer interferometry

Binder | EC50 of neutralization of luciferase-expressing VSV pseudotype on Vero cells [1] [µg/mL] | EC50 [2] [pM] | Kd [3] [pM] | koff [3] [s⁻¹] | kon [3] [M⁻¹ s⁻¹]
B1 | > 10 | – | – | – | –
B2 | – | 60 | < 6 | < 1e-07 | 16000

Reference: patent publication US20190381162A1 (INTEGRATED BIOTHERAPEUTICS, published 2019)
